Experimental data as given in PMC5052520, “The Important Role of Halogen Bond in Substrate Selectivity of Enzymatic Catalysis” (Scientific Reports, 2016).

Legend:
Experiment in all cases: hydrolysis kinetics, product by liquid chromatography
Format in all cases: biochemical, Synechocystis sp. PCC 6803
N#CCc1cccc(Cl)c1 = tested on: N#CCc1cccc(Cl)c1
Description: (§1) hydrolysis kinetics, product by liquid chromatography on nitrilase (WT)

N#CCc1ccc(Cl)cc1 = tested on: N#CCc1ccc(Cl)cc1
Description: as §1

N#CCc1ccccc1Cl = tested on: N#CCc1ccccc1Cl
Description: as §1

Substance | Km (N#CCc1cccc(Cl)c1) [µM] | kcat (N#CCc1cccc(Cl)c1) [s⁻¹] | kcat/Km (N#CCc1cccc(Cl)c1) [M⁻¹ s⁻¹] | Km (N#CCc1ccc(Cl)cc1) [µM] | kcat (N#CCc1ccc(Cl)cc1) [s⁻¹] | kcat/Km (N#CCc1ccc(Cl)cc1) [M⁻¹ s⁻¹] | Km (N#CCc1ccccc1Cl) [µM] | kcat (N#CCc1ccccc1Cl) [s⁻¹] | kcat/Km (N#CCc1ccccc1Cl) [M⁻¹ s⁻¹]
nitrilase (WT) (Synechocystis sp. PCC 6803 substr. Kazusa) | 460 ± 40 | 0.27 ± 0.02 | 590 |  |  |  |  |  | 
nitrilase (WT) (Synechocystis sp. PCC 6803 substr. Kazusa; T54Y) | 9600 ± 270 | 0.08 ± 0.13 | 10 | 710 ± 30 | 0.56 ± 0.07 | 560 |  |  | 
nitrilase (WT) (Synechocystis sp. PCC 6803 substr. Kazusa; H141W) |  |  |  |  |  |  | 650 ± 180 | 0.21 ± 0.05 | 330
